B1: RNA polymerase II subunit A C-terminal domain phosphatase SSU72 (Homo sapiens), Q9NP77-1 (parent)
chain: MPSSPLRVAVVCSSNQNRSMEAHNILSKRGFSVRSFGTGTHVKLPGPAPDKPNVYDFKTTYDQMYNDLLRKDKELYTQNGILHMLDRNKRIKPRPERFQNCKDLFDLILTCEERVYDQVVEDLNSREQETCQPVHVVNVDIQDNHEEATLGAFLICELCQCIQHTEDMENEIDELLQEFEEKSGRTFLHTVCFY
partner: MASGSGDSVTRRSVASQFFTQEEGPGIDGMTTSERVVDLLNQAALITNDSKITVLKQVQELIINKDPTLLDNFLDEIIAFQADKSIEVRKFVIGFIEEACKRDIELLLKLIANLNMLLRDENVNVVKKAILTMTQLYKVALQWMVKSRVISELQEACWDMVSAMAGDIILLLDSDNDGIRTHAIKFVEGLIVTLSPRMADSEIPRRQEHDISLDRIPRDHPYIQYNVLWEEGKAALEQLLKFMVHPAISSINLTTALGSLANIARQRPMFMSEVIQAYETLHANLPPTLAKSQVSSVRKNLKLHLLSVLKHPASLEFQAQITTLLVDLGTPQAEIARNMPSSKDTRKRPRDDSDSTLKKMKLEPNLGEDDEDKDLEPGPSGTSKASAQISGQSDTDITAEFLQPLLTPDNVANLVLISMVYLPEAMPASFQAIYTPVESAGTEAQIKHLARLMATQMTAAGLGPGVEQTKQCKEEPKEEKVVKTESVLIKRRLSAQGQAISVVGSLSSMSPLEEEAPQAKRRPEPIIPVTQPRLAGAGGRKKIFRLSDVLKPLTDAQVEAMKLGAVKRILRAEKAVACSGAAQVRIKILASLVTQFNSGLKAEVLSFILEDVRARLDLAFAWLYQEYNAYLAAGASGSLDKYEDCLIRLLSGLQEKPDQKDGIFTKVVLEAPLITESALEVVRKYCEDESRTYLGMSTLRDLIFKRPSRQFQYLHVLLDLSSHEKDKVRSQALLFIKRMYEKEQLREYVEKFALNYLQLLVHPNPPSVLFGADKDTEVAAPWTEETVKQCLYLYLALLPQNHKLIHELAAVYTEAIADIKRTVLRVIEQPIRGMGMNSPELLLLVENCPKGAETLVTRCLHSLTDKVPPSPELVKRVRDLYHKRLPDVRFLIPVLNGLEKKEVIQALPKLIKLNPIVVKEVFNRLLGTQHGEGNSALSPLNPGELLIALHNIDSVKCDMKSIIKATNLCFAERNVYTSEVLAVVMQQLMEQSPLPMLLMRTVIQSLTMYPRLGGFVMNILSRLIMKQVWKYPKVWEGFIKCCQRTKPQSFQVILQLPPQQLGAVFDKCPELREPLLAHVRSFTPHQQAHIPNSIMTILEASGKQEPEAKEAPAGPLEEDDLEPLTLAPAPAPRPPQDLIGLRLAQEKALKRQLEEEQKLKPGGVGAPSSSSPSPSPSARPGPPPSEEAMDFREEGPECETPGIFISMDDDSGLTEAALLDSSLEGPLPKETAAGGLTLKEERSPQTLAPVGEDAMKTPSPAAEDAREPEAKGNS
B2: Symplekin (Homo sapiens), Q92797 (parent)
chain: B1 partner

Variants of: B1
Conditions: with sympk_human SYMPK

| Variant | effect of a mutation on the interaction |
| --- | --- |
| MPSSPLRVAVVCSSNQNRSMEAHNILSKRGFSVRSFGTGTHVKLPGPAPDKPNVYDFKTTYDQMYNDLLRKDKELYTQNGILHMLDRNKRIKPRPERFQNCKDLFDLILTCEERVYDQVVEDLNSREQETCQPVHVVNVDIQDNHEEATLGAFLICELCQCIQHTEDMENEIDELLQEFEEKSGRTFLHAACAY [T190A;V191A;F193A] | disrupting interaction |

Variants of: B2
Conditions: with SSU72, Q9NP77-1

| Variant | effect of a mutation on the interaction |
| --- | --- |
| K185A | disrupting interaction |

Source: IntAct's records for PubMed 20861839
